Substitutions are numbered along the chain they refer to.
Assays:
[1] = biological target: T1, rhesus CCL20-secreted alkaline phosphatase (SEAP) fusion (rhesus monkey); experiment: ELISA, serially diluted CCL20-SEAP captured by anti-alkaline phosphatase antibody, antibody at 1 µg/ml; rhesus CCL20-SEAP
T1 construct: also called rCCL20; rhesus CCL20-SEAP; not shown: the SEAP reporter (cDNA from Clontech pSEAP-Enhancer) and its junction to CCL20
T1 chain: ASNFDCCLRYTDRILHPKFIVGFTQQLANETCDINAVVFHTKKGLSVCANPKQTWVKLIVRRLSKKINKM
Procedure: (§1) To test whether the chimeric and humanized antibodies can bind to mouse, cynomolgus, or rhesus macaque CCL20 orthologs, we used ELISA assays as illustrated in FIG. 15. Recombinant secreted alkaline phosphatase (SEAP)-chemokine fusion proteins were engineered as described in Example 2, expressed and purified for all of the CCL20 orthologs tested. Nunc MaxiSorb flat-bottom black plates were coated with 1 μg/ml mouse anti-placental alkaline phosphatase antibody (Pierce, cat# MA1-19354) in 50 mM sodium bicarbonate, pH 9.4, overnight at 4° C. Plates were then blocked using 1× phosphate buffered saline with Tween-20 (PBST) with 5% bovine serum albumin (BSA) for 2 hours at room temperature. 20 nM SEAP-CCL20 fusion proteins were serially diluted 5-fold in Opti-MEM medium (Invitrogen). Chimeric and humanized (HC2/LC3 and HC2/LK3) antibodies were diluted to 1 μg/ml in 1×PBST with 5% BSA, added to the plates, and incubated for 1 hr at room temperature. The plates were then washed with 1×PBST with 5% BSA three times. […] QuantaBlu fluorescent HRP substrate (Pierce cat#15169) was added for detection of bound antibody by measuring fluorescence in a Molecular Devices M5 (Excitation 325 nm/Emission 420 nm) plate reader. […]

[2] = biological target: T2, cynomolgus CCL20-secreted alkaline phosphatase (SEAP) fusion (cynomolgus monkey); experiment: ELISA, serially diluted CCL20-SEAP captured by anti-alkaline phosphatase antibody, antibody at 1 µg/ml; cynomolgus CCL20-SEAP
T2 construct: also called cCCL20; cynomolgus CCL20-SEAP; not shown: the SEAP reporter (cDNA from Clontech pSEAP-Enhancer) and its junction to CCL20
T2 chain: T1 chain with V38I
Procedure: To test whether the chimeric and humanized antibodies can bind to mouse, cynomolgus, or rhesus macaque CCL20 orthologs, we used ELISA assays as illustrated in FIG. 15. Recombinant secreted alkaline phosphatase (SEAP)-chemokine fusion proteins were engineered as described in Example 2, expressed and purified for all of the CCL20 orthologs tested. Nunc MaxiSorb flat-bottom black plates were coated with 1 μg/ml mouse anti-placental alkaline phosphatase antibody (Pierce, cat# MA1-19354) in 50 mM sodium bicarbonate, pH 9.4, overnight at 4° C. Plates were then blocked using 1× phosphate buffered saline with Tween-20 (PBST) with 5% bovine serum albumin (BSA) for 2 hours at room temperature. 20 nM SEAP-CCL20 fusion proteins were serially diluted 5-fold in Opti-MEM medium (Invitrogen). Chimeric and humanized (HC2/LC3 and HC2/LK3) antibodies were diluted to 1 μg/ml in 1×PBST with 5% BSA, added to the plates, and incubated for 1 hr at room temperature. The plates were then washed with 1×PBST with 5% BSA three times. […] QuantaBlu fluorescent HRP substrate (Pierce cat#15169) was added for detection of bound antibody by measuring fluorescence in a Molecular Devices M5 (Excitation 325 nm/Emission 420 nm) plate reader.

[3] = biological target: T3, human CCL20-secreted alkaline phosphatase (SEAP) fusion (human, UniProt P78556 27-96); experiment: ELISA (fluorescent HRP substrate): CCL20-SEAP captured on anti-alkaline phosphatase in 5-fold dilutions from 20 nM (x axis, nM), antibody at 1 ug/ml; the text rounds this number to 62 pM
T3 construct: also called hCCL20; human CCL20-SEAP; not shown: secreted alkaline phosphatase (SEAP), cDNA from pSEAP-Enhancer vector (Clontech)
T3 sequence (P78556 27-96): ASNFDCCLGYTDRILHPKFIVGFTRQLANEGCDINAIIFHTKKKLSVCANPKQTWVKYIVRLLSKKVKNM
Procedure: as §1

[4] = biological target: T4, mouse CCL20-secreted alkaline phosphatase (SEAP) fusion (mouse, UniProt O89093 28-97); experiment: ELISA on CCL20-SEAP, Abs 450; x axis 'ug/ml' in 4-fold steps down from 10, taken as the antibody concentration as in FIG. 11C
T4 construct: Expressed in HEK293E, used as culture supernatant; also called SEAP-tagged mouse CCL20; mCCL20; not shown: secreted alkaline phosphatase (SEAP), cDNA from pSEAP-Enhancer vector (Clontech)
T4 sequence: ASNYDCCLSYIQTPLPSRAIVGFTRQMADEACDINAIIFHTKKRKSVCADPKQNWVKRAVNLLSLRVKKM

recombinant human CXCL4 = biological target: T5, recombinant human CXCL4 (human, UniProt P02776 32-101); experiment: SPR (Biacore): antibody captured on the sensor chip, free chemokine injected; concentration not shown
T5 construct: also called PF4
T5 sequence (looked up): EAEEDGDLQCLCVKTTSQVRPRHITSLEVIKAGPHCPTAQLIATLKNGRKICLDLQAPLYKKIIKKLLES

B1: humanized anti-human CCL20 antibody 36LC3/36HC2 (antibody, human IgG1, kappa, V domains shown)
VH: QVQLVQSGAEVKKPGASVKVSCKASGYTFTNYWMHWVRQAPGQGLEWMGVIDPSDSYTTYAQKFQGRVTMTVDTSTSTVYMELSSLRSEDTAVYYCARGNYGVDYAMDYWGQGTLVTVSS
VL: DIQMTQSPSSLSASVGDRVTITCRASENIYGALNWYQQKPGKAPKLLIYGATNLADGVPSRFSGSGSGRQYSLTISSLQPEDFATYYCQNVLITPYTFGGGTKLEIKR
notes: expressed in HEK293 cells; also called HC2/LC3; HC2LC3
For B1, the EC50 [1] was 0.101 nM, the EC50 [2] was 0.34 nM and the EC50 [3] was 0.0619 nM.

B2: mouse anti-human CCL20 monoclonal antibody 36F7C10 (antibody, V domains shown)
VH: QVQLQQPGAELVKPGASVKMSCKASGYTFTNYWMHWVKQRPGQGLEWIGVIDPSDSYTTYNQKFKGKATLTVDTSSSTAYMQLSSLTSEDSAVYYCTRGNYGVDYAMDYWGQGTSVTVSS
VL: DIQMTQSPASLSASVGETVTITCGASENIYGALNWYQRKQGKSPQLLIYGATNLADGMSSRFSGSGSGRQYSLKISSLHPDDVATYYCQNVLITPYTFGGGTKLEIK
notes: Mouse hybridoma antibody; also called MouseMAb; parental mouse clone 36F7C10
B2: no binding (tested: 10 ug/ml) [4].

B3: chimeric 36F7C10 antibody (36F7C10-hFc) (antibody, V domains shown)
VH: B2 VH
VL: B2 VL
notes: also called chimeric 36F710; Chimeric MAb
B3: no binding (recombinant human CXCL4).

From patent US20160046707A1 (EISAI R AND D MANAGEMENT, published 2016)
